B1: M344 (VHH)
VHH: QVQLVESGGGLVQSGGSLRLSCVASGSAFSFDAMGWYRQFSATRRERQLVVATSRDGRTYYADSVKGRFTATRDNSKNSLYLEMNSLKPEDTAIYYCAAGDDPKNYSWGQGTQVTVSS
B2: M197 (VHH)
VHH: EVQLVESGGGLVQAGGSLRLSCAASGSHFGLNVVGWYRQAPGKQRELVASIGNSGRTTDYADSVKGRFTISKDNAQNTIYLQMNNLKPEDTAMYRCHLRVSVERGYWGQGTQVTVSS
B3: M047 (VHH)
VHH: QVQLVETGGGSVQAGGSLRLSCAASGSIASIDAMGWYRQVPGKEWERELVATISSSNSDNKYYKDSVKGRFTISTNIAKNTWYLQMNNLKPEDTAMYYCAAEDYDTKDRFWGQGTQVTVSS
B4: M118 (VHH)
VHH: EVQLVESGGGLVQAGGSLTLSCAASEHTFTIDAMGYYRQIPGRRNERQLVAAAGRTGTTYYNDAVKDRFTIYRDTSKETIILQMNNLRPEDTTMYYCAVERYSDQSRFFGPGTQVTVSS
B5: M182 (VHH)
VHH: QVQLVESGGGSVQAGGSLTLSCAASGAVSSINAMGWYRQTPEKVRQLVATMGSGGNTYYAASVKGRFTISRDYAKNTVALQMNHLLPEDTAVYYCAADRFGADIREVDYWGKGTQVTVSS
B6: M129 (VHH)
VHH: QVQLVESGGGSAQAGGSLILSCVASANLFTIDALGWYRQAPGPKRELVAAISSGGNKYYADAVKGRFTISRDTLTKTMWLQMNNLKPEDTAMYYCAAEDYGLGQRSWGMGTQVTVSS
B7: M169 (VHH)
VHH: EVQLVESGGGTVQPGESLRLSCEASGAVSTINAMGWYRQTPEMRKLVATMGSGGNTYYADSVKGRFTISRDFAGNTVDLQMNDLKPEDTGVYFCAADKFGADIKEVAYWGKGTLVTVSS
B8: M156 (VHH)
VHH: QVQLVESGGGLVQAGGSLRLSCAVSGISFEYYAIGWFRQAPGKEREAVSCTTSGTTSGGGVTDYADSLKGRFTISRDVAKNTVYLQMNNLTPEDTAVYYCAADIHCRGYVLFVPSDFGNWGQGTQVTVSS
B9: M132 (VHH)
VHH: QVQLVESGGGLVQAGGSLSLSCVASGDAFSFDAMGWYRQFSGKVNERQLVVATSRDGRTAYGERVKGRFTASRDNSKNTLSLVMNNLQVEDTAIYYCAAGDDPKDYYWGQGTQVTVSS
B10: M210 (VHH)
VHH: QVQLVESGGGLVQPGGSLRLSCAASGITLDNYAIAWFRQAPGKKREGVSCISSNGNTYYQPSVKGRFTIARDNAKNTVYLHMNNLNPEDTAVYYCQVGQFSSSTTPVQAMSVMSLYADWGQGTQVTVSS
B11: M044 (VHH)
VHH: QVQVVESGGGFVQAGGSLRLSCAASTPIISIAYMGWYRQISEKERQLVATINSGGKTYYADSVKGRFTISRDNAKNTLYLQMNMLKPEDTGMYYCAASNKDYNDYDPDWGQGTQVTVSS
B12: M2339 (VHH)
VHH: QLQLGASGGGLVQPGGSLRLSCALSGFTLRELDEFAIGWFRQAPGKEREGVSCISGTGGITHYADSVKGRFTISRDIAKTTVYLQMNSLNSEDTAVYYCAADERCTDRLIRPPTYWGQGTQVTVSS
B13: M005 (VHH)
VHH: EVQLVESGGGWVQSGGSLRLACAASGSSFGLNVVGWYRQAPDKQRELVASIGNGGRTTDYADSVKGRFTISSDNAKNTVFLQMNDLKPEDTAVYYCHLRASVTKGYWGQGTQVTVSS
B14: M126 (VHH)
VHH: EVQLVESGGGWVQSGGSLRLACAASGDSFGLNVVGWYRLAPDKQRELVASIGNGGRTTDYADSVKGRFTISSDNAKNTVFLQMNDLKPEDTAMYYCHLRVSVTEGYWGQGTQVTVSS
B15: M224 (VHH)
VHH: QVQLVESGGGLVQPGGSLRLSCAASGFTFHYYAIGWFRQAPGKEREGVSCISSSGDSTWFSDSVKGRFTVSRDNAKNIVHLQMNNLKPEDTAVYYCAGTTRSGYVCYDAEPYDSWGQGTQVTVSS
B16: M001 (VHH)
VHH: EVQLVESGGGLVQAGGSLRLSCAASGSIFNINAMGWYRQAPGKEWERELVATISSSNSDNTYYKDSVKGRFTISTNTAKNTWYLQMNSLKPEDTAMYYCAAENYDRKDRYWGQGTQVTVSS
B17: M003 (VHH)
VHH: QVQLVESGGGLVQAGGSLRLSCTASGNIFSINAMGWYRQPPGKEWERELVATISSTNSDNTYYKESVKGRFTISTNTAKNTWYLQMNSLKPEDTAMYYCAAENFDRKDRYWAQGTQVTVSS
B18: M032 (VHH)
VHH: EVQLVESGGGSVQAGGSLKISCAASGSVIDIGAMGWYRHITEKERKLVATINAGGNTYYADSVKGRFTISRDNAKYTVYLQMNSLKPEDTAMYYCAAEDINYTGTEAYYWGQGTQVTVSS
B19: M012 (VHH)
VHH: QVQLVESGGDLVQTGGSLRLSCVVSGSTFAINAMGWYRQAPGKERELVAAISSGGDSTHYADDVKGRFTISRDNAENTMYLQMKSLKPEDTAVYVCNARGCRDFHNPQALCVLRDYWGQGTQVTVSS
B20: M050 (VHH)
VHH: EVQLQESGGGLVQAGGSLRLSCAASGAVSSINAMGWYRQTPEKVRKLVATMGSGGNTYYADSVKGRFTISRDYAKNTVALQMNNLIPEDTAVYYCAADKFGADIHEVDYWGKGTLVTVSS
B21: M004 (VHH)
VHH: EVQLVESGGGLVQAGGSLRLSCAASESISSIAYMGWYRRISEKERNLVATISSTGSTYYADSVKGRFTISRDNAKNTMYLQMNRLKPEDTAIYYCAASNKAYNDYDPDWGQGTQVTVSS
B22: M143 (VHH)
VHH: EVQLVESGGGLVQAGGSLRLSCSASEKTFSIKYMGYYRQGPGIERKLVATIDTDGKTWYADSVKGRFTISRENGENEIGLEMNRLKPEDTAMYYCAGETGTYPKPEYWGQGTQVTVSS
B23: M137 (VHH)
VHH: QVQLVESGGGLVQAGGSLSLSCAASGSLSSINAMGWYRQLPEMRQLVATMGSDGKTYYADSVKGRFTISRDYAKYTVSLQMNNLRPEDTAIYYCAADRFGAPIHDVDYWGKGTLVTVSV
B24: M119 (VHH)
VHH: EVQLVESGGGLVQPGGSLRLSCVASGSDLSFDAMGWYRQFSATVRERQLVVATSRDGRIYYGDSVKGRFTASRDNLKNSVDLEMNNLKPEDTAIYYCAAGDDPKNYDWGPGTQVTVSS
B25: M010 (VHH)
VHH: QVQLVESGGGLVQAGGSLRLSCAASGSVSSINAMGWYRQGTGEVRKLVATMGSGGNTYYADSVKGRFFITRDYSKNTVSLQMNNLTPEDSATYYCAADRFGASIHEVDYWGKGTLVTVSS
B26: M191 (VHH)
VHH: QVQLVESGGGLVQAGGSLRLSCAASASMGSISNMGWYRQAPGKERGNERNLVATIGSDGRTYYADSVKGRFTISRDNVKNTMILQMNFLKPEDTAMYYCAVEDRQRPGTENYYWGQGTQVTVSS
B27: YP218-IgG4 (antibody, from another filing, V domains shown)
VH: QQQLEESGGGLVKPEGSLTLTCKASGFDLGFYFYACWVRQAPGKGLEWIACIYTAGSGSTYYASWAKGRFTISKASSTTVTLQMTSLAAADTATYFCARSTANTRSTYYLNLWGPGTLVTVSS
VL: DVVMTQTPASVSEPVGGTVTIKCQASQRISSYLSWYQQKPGQRPKLLIFGASTLASGVPSRFKGSGSGTEYTLTISDLECADAATYYCQSYAYFDSNNWHAFGGGTEVVVRT
B28: M2339-z1-1 (antibody, part only; not given: constant region, IgG4, part only)
heavy, part: QLQLGASGGGLVQPGGSLRLSCALSGFTLRELDEFAIGWFRQAPGKEREGVSCISGTGGITHYADSVKGRFTISRDIAKNTVYLQMNSLNSEDTAVYYCAADERCTDRLIRPPTYWGQGTQVTVSS

Sequence of MSLN·His protein (human) (Q13421 other isoform, or with tags, fused parts or gaps limits assumed): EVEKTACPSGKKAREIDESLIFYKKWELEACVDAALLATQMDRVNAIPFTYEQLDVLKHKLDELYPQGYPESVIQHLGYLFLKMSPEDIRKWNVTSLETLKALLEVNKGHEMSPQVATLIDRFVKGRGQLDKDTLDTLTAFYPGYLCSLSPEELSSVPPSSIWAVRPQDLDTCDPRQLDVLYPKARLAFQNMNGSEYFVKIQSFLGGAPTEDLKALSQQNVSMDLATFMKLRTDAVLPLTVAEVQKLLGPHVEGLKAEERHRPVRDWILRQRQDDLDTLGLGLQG

The first assay deals with Negative control (amino acid sequence shown in SEQ ID NO: 2 in CN106046152A). Kind of assay: ELISA, negative control well, TG1 supernatant. On the technique in general: In an ELISA, binding on a coated surface is turned into a signal by an enzyme label.
As for B1, the ELISA (OD450) came to 0.0082 OD450. For B2, the ELISA (OD450) was determined as 0.0074 OD450.

B3 came in with an ELISA (OD450) of 0.018 OD450.

B4 came in with an ELISA (OD450) of 0.0074 OD450. Same read-out and setting: next, B5: 0.0075 OD450; B6: 0.007 OD450. Turning to B7, the ELISA (OD450) turned out to be 0.007 OD450. Still for that read-out and setting: to B8 belongs 0.0074 OD450; to B9, 0.007 OD450.

B10 registered an ELISA (OD450) of 0.0071 OD450. With B11, the ELISA (OD450) was 0.0083 OD450. Turning to B12, the ELISA (OD450) came out at 0.0479 OD450. On the same count and under the same terms, to B13 belongs 0.0072 OD450. The same measure, in the same setting: next, B14: 0.0068 OD450. On the same count and under the same terms, next, B15: 0.0074 OD450; B16: 0.0184 OD450. Molecule B17 registered an ELISA (OD450) of 0.0104 OD450. B18 showed an ELISA (OD450) of 0.0076 OD450. The same measure, in the same setting: next, B19: 0.0075 OD450.

The molecule B20 came in with an ELISA (OD450) of 0.0099 OD450.

The molecule B21 displayed an ELISA (OD450) of 0.0085 OD450. The same measure, in the same setting: next, B22: 0.0085 OD450.

Take B23: the ELISA (OD450) was 0.0087 OD450. Take B24: the ELISA (OD450) came to 0.0071 OD450. On the same count and under the same terms, to B25 belongs 0.007 OD450.

B26: the ELISA (OD450) worked out at 0.0074 OD450.

Another assay concerns the target MSLN·His protein (human) (UniProt Q13421). Nature of the assay: SPR (Biacore), antibody captured on protein A, MSLN·His as analyte. (SPR reads the build-up and loss of mass on a sensor chip optically.)
Broadly, the Kd is the constant that tells how readily two partners part at equilibrium. By koff is commonly meant a measure of how fast the partners let go of each other. A lower koff goes with slow dissociation. Broadly, the kon is a measure of how fast the partners come together. The low end stands for slow association, the high end for fast association. B27 gave a Kd of 3.1 nM, a dissociation rate constant (koff) of 0.000123 s⁻¹ and a kon of 40200 M⁻¹ s⁻¹. As to B28, the Kd stood at 2270 nM, the koff turned out to be 0.000739 s⁻¹ and the kon turned out to be 326 M⁻¹ s⁻¹.

A further assay deals with MSLN on SKOV3 and Aspc-1 tumor cells (UniProt Q13421). Nature of the assay: flow cytometry on SKOV3 tumor cells, anti-human IgG PE secondary, fitted curve. A general note: Flow cytometry measures light scatter and fluorescence of single cells or particles in a stream.
Sequence of MSLN on SKOV3 and Aspc-1 tumor cells (Q13421 other isoform, or with tags, fused parts or gaps limits assumed): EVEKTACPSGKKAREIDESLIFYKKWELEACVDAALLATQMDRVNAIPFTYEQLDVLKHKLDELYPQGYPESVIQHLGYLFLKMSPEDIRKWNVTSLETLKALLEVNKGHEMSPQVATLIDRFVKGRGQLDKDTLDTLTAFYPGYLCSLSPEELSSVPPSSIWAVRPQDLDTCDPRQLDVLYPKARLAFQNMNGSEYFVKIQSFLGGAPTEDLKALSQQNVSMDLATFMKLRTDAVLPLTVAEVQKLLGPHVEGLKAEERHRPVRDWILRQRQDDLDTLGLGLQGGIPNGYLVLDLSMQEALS
For orientation: EC50 means the concentration needed to bring the measured effect to its halfway point. Molecule B27 yielded an EC50 of 6.96 nM.

For another assay the target is unchanged. Nature of the assay: flow cytometry on Aspc-1 tumor cells, anti-human IgG PE secondary, fitted curve.
On to B27, for which the EC50 turned out to be 4.24 nM.

Another assay deals with segment III of MSLN expressed on HEK293T cells (UniProt Q13421). Nature of the assay: flow cytometry on HEK293T cells expressing MSLN segment III, anti-human IgG PE secondary, fitted curve.
Sequence of segment III of MSLN expressed on HEK293T cells (Q13421 495-606 limits assumed): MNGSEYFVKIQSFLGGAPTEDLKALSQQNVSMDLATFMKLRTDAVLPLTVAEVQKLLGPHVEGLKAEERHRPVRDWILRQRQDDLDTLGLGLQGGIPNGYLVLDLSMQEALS
Molecule B27 displayed an EC50 of 2.44 nM. In other words, the single-digit nanomolar range.

These data come from patent US20240190986A1.
